Consider two substances from patent US20060293221A1.

Experiment [1] deals with Mucin I: Crude mucin, type II from porcine stomach (Sigma).
For experiment [2] the target is unchanged. The source holds these as a separate data set.
Experiment [3] has the same target. The source holds these as a separate data set.

Substance “glycosylated recombinant human Asn99-TFF2 (from UniProt Q03403) (ligand)” came in with an Elastic modules G' (Pa) at 1 Hz, oscillatory measurement in experiment [1] of 17 Pa. For the same substance, the viscosity, rheometer, comparison of four TFF2 peptides (7.05 mg in 2 ml 10% mucin I) in experiment [2] amounted to 0.8 Pa s. Besides, the viscosity, rheometer, constant rate (stress versus shear rate) in experiment [3] was determined as 10 factor.

In the case of “non-glycosylated recombinant human Asn99-TFF2 (from UniProt Q03403) (ligand)”, the viscosity, rheometer, comparison of four TFF2 peptides (7.05 mg in 2 ml 10% mucin I) in experiment [2] came to 0.54 Pa s.
